# Patent US20210214413A1
# Changes are numbered by the printed parent chain. Names and notes keep the numbering of the source.
# B1: full-length FLAG-CDHR3 Y529 N186Q (receptor)
# chain: DYKDDDDKLHLILLPATGNVAENSPPGTSVHKFSVKLSASLSPVIPGFPQIVNSNPLTEAFRVNWLSGTYFEVVTTGMEQLDFETGPNIFDLQIYVKDEVGVTDLQVLTVQVTDVNEPPQFQGNLAEGLHLYIVERANPGFIYQVEAFDPEDTSRNIPLSYFLISPPKSFRMSAQGTLFSTTELDFEAGHRSFHLIVEVRDSGGLKASTELQVNIVNLNDEVPRFTSPTRVYTVLEELSPGTIVANITAEDPDDEGFPSHLLYSITTVSKYFMINQLTGTIQVAQRIDRDAGELRQNPTISLEVLVKDRPYGGQENRIQITFIVEDVNDNPATCQKFTFSIMVPERTAKGTLLLDLNKFCFDDDSEAPNNRFNFTMPSGVGSGSRFLQDPAGSGKIVLIGDLDYENPSNLAAGNKYTVIIQVQDVAPPYYKNNVYVYILTSPENEFPLIFDRPSYVFDVSERRPARTRVGQVRATDKDLPQSSLLYSISTGGASLQYPNVFWINPKTGELQLVTKVDYETTPIYILRIQATNNEDTSSVTVTVNILEENDEKPICTPNSYFLALPVDLKVGTNIQNFKLTCTDLDSSPRSFRYSIGPGNVNNHFTFSPNAGSNVTRLLLTSRFDYAGGFDKIWDYKLLVYVTDDNLMSDRKKAEALVETGTVTLSIKVIPHPTTIITTTPRPRVTYQVLRKNVYSPSAWYVPFVITLGSILLLGLLVYLVVLLAKAIHRHCPCKTGKNKEPLTKKGETKTAERDVVVETIQMNTIFDGEAIDPVTGETYEFNSKTGARKWKDPLTQMPKWKESSHQGAAPRRVTAGEGMGSLRSANWEEDELSGKAWAEDAGLGSRNEGGKLGNPKNRNPAFMNRAYPKPHPGK
# B2: full-length FLAG-CDHR3 Y529 K43A (receptor)
# chain: B1 chain with K32A, Q175N
# B3: full-length FLAG-CDHR3 Y529 R166A (receptor)
# chain: B1 chain with R155A, Q175N
# B4: full-length FLAG-CDHR3 Y529 W76A (receptor)
# chain: B1 chain with W65A, Q175N
# B5: rEC1-3 K43A (CDHR3 residues 20-345 with K43A and C345A), bacterially produced and refolded (receptor)
# chain: MASDYKDDDDKLHLILLPATGNVAENSPPGTSVHAFSVKLSASLSPVIPGFPQIVNSNPLTEAFRVNWLSGTYFEVVTTGMEQLDFETGPNIFDLQIYVKDEVGVTDLQVLTVQVTDVNEPPQFQGNLAEGLHLYIVERANPGFIYQVEAFDPEDTSRNIPLSYFLISPPKSFRMSANGTLFSTTELDFEAGHRSFHLIVEVRDSGGLKASTELQVNIVNLNDEVPRFTSPTRVYTVLEELSPGTIVANITAEDPDDEGFPSHLLYSITTVSKYFMINQLTGTIQVAQRIDRDAGELRQNPTISLEVLVKDRPYGGQENRIQITFIVEDVNDNPATAGTKHHHHHH
# B6: rEC1-3 N186A (CDHR3 residues 20-345 with N186A and C345A), bacterially produced and refolded (receptor)
# chain: B5 chain with A35K, N178A
# B7: pHL-FLAG-CDHR3-His EC1-3 (1-345), HeLa-expressed (receptor)
# chain: DYKDDDDKLHLILLPATGNVAENSPPGTSVHKFSVKLSASLSPVIPGFPQIVNSNPLTEAFRVNWLSGTYFEVVTTGMEQLDFETGPNIFDLQIYVKDEVGVTDLQVLTVQVTDVNEPPQFQGNLAEGLHLYIVERANPGFIYQVEAFDPEDTSRNIPLSYFLISPPKSFRMSANGTLFSTTELDFEAGHRSFHLIVEVRDSGGLKASTELQVNIVNLNDEVPRFTSPTRVYTVLEELSPGTIVANITAEDPDDEGFPSHLLYSITTVSKYFMINQLTGTIQVAQRIDRDAGELRQNPTISLEVLVKDRPYGGQENRIQITFIVEDVNDNPATCHHHHHH
# B8: full-length FLAG-CDHR3 Y529 N186A (receptor)
# chain: B1 chain with Q175A
# Columns and labels:
# [1] = target: rhinovirus C15 virus (recombinant RV-C isolate C15, sucrose purified) (rhinovirus C15); test: IP (α-His mAb) of refolded bacterial protein (100 pmol) with C15 virus (10^7 PFUe), Western blot
# [2] = target: rhinovirus C15 virus (recombinant RV-C isolate C15, sucrose purified) (rhinovirus C15); test: IP (α-CDHR3 mAb) of transfected HeLa cell lysate reacted with C15 virus, Western blot
# [3] = target: rhinovirus C15 virus (recombinant RV-C isolate C15, sucrose purified) (rhinovirus C15); test: IP of CDHR3 with C15 virus, Western blot; multiple experiments and CDHR3 contexts
# [4] = target: rhinovirus C15 virus (recombinant RV-C isolate C15, sucrose purified) (rhinovirus C15); test: IP (α-His mAb) of refolded bacterial protein (100 pmol) with C15 virus (10^7 PFUe), Western blot; remark: listed apart in the source
# [5] = target: rhinovirus C15 virus (recombinant RV-C isolate C15, sucrose purified) (rhinovirus C15); test: HeLa-expressed protein recovered by α-His IP, denatured and refolded, reacted with C15 virus, α-His IP, Western blot
Molecule,virus-binding efficiency (Binding % relative to positive control) [1] [%],"Binding % (C15 signal normalized to CDHR3 signal, relative to WT) [2] [%]",other results
"rEC1-2 (FLAG-CDHR3 EC1-2-His, CDHR3 residues 20-237), bacterially produced and refolded (from UniProt Q6ZTQ4 20-237) (receptor)",87,–,–
"rEC1+3(Δ2) (FLAG-CDHR3 EC1+3(Δ2), residues 20-345 Δ129-231 with C345A), bacterially produced and refolded (from UniProt Q6ZTQ4 20-344) (receptor)",68,–,–
"rEC1 (FLAG-CDHR3 EC1-His, CDHR3 residues 20-130), bacterially produced and refolded (receptor)",100,–,–
"rEC1-3 (FLAG-CDHR3 EC1-3-His, CDHR3 residues 20-345 with C345A), bacterially produced and refolded (from UniProt Q6ZTQ4 20-344) (receptor)",61,–,–
B1,–,19,–
B2,–,46,–
B3,–,16,–
B4,–,–,more virus pull-down than comparable WT sequences (% more than WT) [3]: 50 to 80
B5,–,–,"Binding % (C15 signal normalized to recombinant protein signal, relative to WT rEC1-3) [4]: 22%"
B6,–,–,"Binding % (C15 signal normalized to recombinant protein signal, relative to WT rEC1-3) [4]: 85 % of WT"
B7,–,–,"Binding % after refolding, relative to the same protein not refolded [5]: 213%"
B8,–,11,–
